Assay: soluble on expression in E. coli; label from the status in PepcDB or PDB records

Sequence | soluble on expression in E. coli
MTNEEPVPSTSSVLSAAEKNVKIETPSRKRKGLDIDALWRKKFKDVENQKSPEKSEKSEKTIKEEPLETHPSGERKLRSASKDSKSLSKETHNTISTRSSSSGTPRKKMEPEDVKPNIKMLKKSLPVSFQCSNLNDGTVGDASVMLDPTKISLHSSSVAYGEESQDEMEVIQHSTDDPNGTREEFDYNQIEYGNAVTPNGTYTLYAPDSNYAPYYQYSNNMQSSPQDNAPYLVPAPQSPVSIDDADSINLPNNQRASPATVNWLFENYEIGEGSLPRCELYDHYKKHCAEHRMDPVNAASFGKLIRSVFHNLKTRRLGTRGNSKYHYYGIRLKDSSTLHSMQHPQPQIIQNTYTPPMQLPQRDAYADTVNQVAAIKYMDVEIPDKRARKDNSSSSSSCRDSVSPCMDLPAQQTIQHTPVHSVIPSTQQPAPLHNNNVVSYVVTESDKAAMGKIDLPIVPFPDKDALMATIGFRKLGVGEEELNSLIDIYEILCREILALIKNIDFASVEDTWSKFWSGNFGVDRDHISALCTLDQVQDYIIEVDLALYQTIVDTLIPNVLLSELSTGMTQTCRTFAKNIDVYLRKSLMLANLGEFFVKKKIQAIKYLQQGLKRYTSLNHLAHASRGVLMKPEQVQQMYQDYIRVDINTVHQQAGWICGCDSVMVHHVNNAFKHNLQRMSAMEVWAEWLESIVDQVLAKYHDKPANVIANVGKQFLLNWSFYTSMIIRDLTLRSAMSFGSFTLIRLLADDYMYYLIESKIAKAGKQQLITVIRADKDWPLTTNPQEYIVVANDNDEDLDLEKAGLL | not soluble
MQQFHIRRLREEDIPLLKGLLVELDTSHYEAEPNFYRSPEEMAQLREERGVFDKYFDDSMIAFIACSHRQVVGFISGTVRDIDSMVSVAKRVGFVNELVVSESHRNLGIGLSLMDKIESDLCNQGIEEIGLTVASFNHEGEDFYHKMGYRVMTKMMSKRVKDLEHHHHHH | soluble
MSLLYKKHSLHNIGRWVTNNSFFRKSGRIAVSTFNVAKFGGTSVANFEAMSRCSAIIENNPQTRLVVSSACSGVTNLLVELANGVASTERRQAILQQLADIHYVIIDQLADPTRVEKEVKAVLDSVASAAEAASFQSSKKLTDHLVACGELISTYILTQLMRERGVDAVRFDIREVLRTDDHYGRAEPQLKEIAQLAKEKLVPLCEQYVVVTQGFIGSDAQGNTTTLGRGGSDYSAALIAEAVQASGLEIWTDVPGIYSTDPRIAPKAAPIPEISFSEASEMANFGAKILHPSTLLPAVRHGIPVFVGSSKEPEKGGTWIRKQVESAPLYRALALRCNQTMVTLRSAQMFHAYGFLAKVFEILAKHKISVDLITTSEISVSLTLDKTDTSGGAPELPEAVRAELEELCTVEVEYNLCLIALIGNKMKESRGYAKQVFSVLEDYNLRMICYGASAHNLCFLLHESVSKQAVQKLHKELFEQEEGHHHHHH | soluble
MRKLWVAFFASLVLAMPSWVSARSHAGGGADVHLPVGHMWKHEGLDEQKWMEMVQKYTPEQEEEWKKVLDERNALRQQLNDENVKQAIKEKCKKMKKEREAALDRLIDQLVDKKITKEQFKKEWKQLHKKKQWMTKEEKQQLHLLHEQTRQAMENNDQEAMKKLLPQWLDHMKKKNERLAKWLQEVKQG | not soluble
HQWQADEEAVRSATCSFSVKYLGCVEVFESRGMQVCEEALKVLRQSRRRPVRGLLHVSGDGLRVVDDETKGLIVDQTIEKVSFCAPDRNHERGFSYICRDGTTRRWMCHGFLACKDSGERLSHAVGCAFAVCLER | soluble
MSFVNVDPFGMLAAAATLESLGSHMAVSNAAVASVTTKVPPPAADYVSKKLSLFFSSHGQQYQVQAARGTAFHRKLVRTLANGALAYEEVEIANNEGF | not soluble
MVDFKMTKEGLVLLIKDYQNLEEVLNAISARITQMGGFFAKGDRISLMIENHNKHSQDIPRIVSHLRNLGLEVSQILVGSTVEGKENDLKVQSRTTVESTGKVIKRNIRSGQTVVHSGDVIVFGNVNKGAEILAGGSVVVFGKAQGNIRAGLNEGGQAVVAALDLQTSLIQIAGFITHSKGEENVPSIAHVKGNRIVIEPFDKVSFERSE | soluble
MGHHHHHHSHMEKCSVGGLELTEQTPALLGNMAMATSLMDIGDSFGHPACPLVSRSRNSPVEDDDDDDDVVFIESIQPPSISAPAIADQRNFIFASSKNEKPQGNYSVIPPSSRDLASQKGNISETIVIDDEEDIETNGGAEKKSSCFIEWGLPGTKNKTNDLDFSTSSLSRSKVNAGMGNSGITTELTLKYIITNVTTLETGISSVNAGQDVNIIITYKTSL | not soluble
MAHHHHHHMMSTYMTRYDYDYNRDPSLTGSDGGSGGGFEQEISGEVRNRPIFAYGVDTGDRDDRTIYQVDYTHKDRSVKNMAGLAATLKGSAASAAAARMRGQDNGTAYQHNWYLPAASAHVVLVDGSHPHTVYQDDYQAPRHVAGGAVHDPVCYAGAAAAAYNADLLKPHGVMEDDGADLAPKITSKESLLPRKHASPNATWTPVFENTADHRHTWNDCVPGDGVVGTYVCTSWDYGDTSQAHPLQLPLSLARSLAAHNLDASANPDKAALLRHLAGKNYSSRTLRGSSSGAPLDTNDRTNPQFLSTVEQKRCAVSRRLEKEHYVTMSIYKSDFIDQGLLPELPGNPGGPADVRDTHTSPLATAGEMMAGQLTTATRELGLLRNAHGTLKSGEAHAASRVSTGVLSAMRAMEKAASIDKADPHCHKLCE | not soluble
MSLELENFQEYNDPVLYDKENRYTGDIPFLLKWAGKVDGTIVDLACGTGRATIPLASKGYKLMGVDVHKGMLEAAREKSSRLNLPIEWIKQDCTKLSLNLMSPFIYSVGNVFQHFLTNEEQDSFLTSVNKHLKESGIFIFDTRFPSKEELLQPNTEEYWKSYQDTDTGQKVDVYTISQYDPLTQIQHYTMIRKSVNAEGLAVNEKRTNIRLRYVFPKEMERLLSANGFEIIDVYQDWQETPLTRDSDQMIYVCKKSSEGHHHHHH | soluble
MSTVVDRLQRMTLNLTSPDGNLCATVDAERRARFHLRDETRFERYDAPTLSTQVKALLTTMNSGRELGIKRAYAADGREPAAVNGTHWDAAHRRFEAALATLELEGYSEDGLLLLQSGFDLSGYRVTIDRDDLPRTSPEQFLRELSGAYRDLLAHRRQRRAELLREHLGT | not soluble
MGSDKIHHHHHHMRDQAESLRRMVDGVMEQGRGQGKVIAVVSGKGGVGKSNVSLNFALTLSRQNQKVALIDLDLGMGNLDILMGLSPSYHIIDMIKRELTIWDIAEQGPEGITYIAGGSGLSELVELNERQMERFFQQLESLGAIYDYIILDMGAGATAESLRFILSAHEIFVVTTPEPTSITDAYAMVKYICKEPIENPEILLIVNRAESKREGEQTAANFKRVVSHFLKKDIHSLGYLPQDSHVVKAVKAQAPFVLHAPQAKASMAMGKLVHTYLGHRVDRGAPSYQSFMKKIRKWFR | not soluble
MGSDKIHHHHHHMRKLISIILLLLTININSQIVELRPVKVPAEHAEYFETIHTEYSIKTAQDAKDKGKLYGWWVAKRLNTNEDDFNYLFITVHPSVESLIDNEYWWQNSEEVTGYKPEILYKMADLFEFDKQYIYQVEMQIPDAAEAKYIIINFATPDDLNTVLKESKEIVMPHFQKNLIKSGMVGWGVATKITPQGSNYSSFSTWDSYDSLENMMKHLGGGAAIEGLPLNKLTPIEWSMRPIFRVITGTK | not soluble
TKEHRAIARKTASESFVLLKNEGVLPLSKKGTIAVVGPLANTRSNMPGTWSVAAVLDNAPSLVEGLREVVGDRAKVVTAKGSNLIGDADYEKRATMFGRELHRDNRTDRELLDEALKVAAGADVIVAALGESSEMSGESSSRTNLEMPDVQRALLQELLKTGKSVVLVLFTGRPLVLTWEEEHVPAILNVWFGGSEAAYAISDVLFGDVNPSGKLTATFPQNVGQIPLFYNHKNTGRPLQEGRWFEKFRSNYLDVSNEPLYPFGYGL | not soluble
MSYKEGDVLVTNGEQSPGYKIVEIKGLVVGITVRSRGLGKNIIASLRSLLGGEIKEYVELAEQARLQALQRMVDNAKALGANAVVNVRFDSNELSEAMDEIIAYGTAVVVEKSS | soluble
MTEPFIVRRETQIAAPRATVFAYLTDPEKILSWMGSDATTEPHPGGLYLLKGIGPRGAAARGAFREVVPVHRLAYTFGWEGGQEVPPGSSLIEIDLIERDGGTLLRMTHSGLPTEEQAAAHAKGWAHYLERLTTAAAGNDPGPDNGVSTKSLEHHHHHH | soluble
MHHHHHHSSGVDLGTENLYFQSNAMLLPTDLSENSFKVLEYLGDFKKVGVEEIGVLFVINLTKLSTVSGGIDIDHYIDEMSEKAEEVLPEVAQKIEAAGIKAEVIKPFPAGDPVVEIIKASENYSFIAMGSRGASKFKKILLGSVSEGVLHDSKVPVYIFKHDMVVNSLFDRVLVAYDFSKWADRALEYAKFVVKKTGGELHIIHVSEDGDKTADLRVMEEVIGAEGIEVHVHIESGTPHKAILAKREEINATTIFMGSRGAGSVMTMILGSTSESVIRRSPVPVFVCKRGDDE | soluble
MAKKKDEITIRSSAAEYLTYVASVGDQQDSIEMRYEDENIWLTQKMMATLYDVDVRTINEHIKKIYSDSELEEDSTIRNFRIVQTEGSRQVTRDTKHYNLQMIIAVGFKVNSERAVQFRKWVNQIAKDYTIKGWVMDDERLKRGTYLTEKYFDEQLERIREIRASERKFYQKITDLYATAIDYDKNAAMTRRFYSTVQNKMHYAVHGHTAAELIVERADHTKEHMGLTTWEDAPEGKIKKSDVTVAKNYLSQDEMKQLNRMVTAYLDFAENMTLRHIPLTMQDWEKRLNSFIEMFDYGILQDAGKVSAEIAKLHAETEFEKYRVIQDRLFMSDFDKFMLELEENTKK | not soluble
MYIQILGSAAGGGFPQWNCNCVNCAGFRDGSLRAQARTQSSIALSDDGVNWVLCNASPDIRAQLQGFAPMQPGRALRDTGISAIVLMDSQIDHTTGLLSLREGCPHQVWCTDMVHEDLSTGFPLFEMLKHWNGGLNWNRIELQGSFVIPACPNLRFTPFPLRSAAPPYSPHRFDPHPGDNIGLLVEDTRTGGKLFYAPGLGKVDEALAEKMRDADCLLVDGTMWDDDEMQRRGVGTRTGREMGHLAQNGPGGMLDVLEGFPEQRKVLIHINNTNPILDEDSPERAELVRRNVEVAFDGMSIELLEHHHHHH | soluble
MAELNTHVNVKEKIYAVRSVVPNKSNNEIVLVLQQFDFNVDKAVQAFVDGSAIQVLKEWNMTGKKNNKRKRSKSKQHQGNKDAKDKVERPEAGPLQPQPPQIQNGPMNGCEKDSSSTDSANEKPALIPREKKISILEEPSKALRGVTGPNIEKSVKDLQRCTVSLTRYRVMIKEEVDSSVKKIKAAFAELHNCIIDKEVSLMAEMDKVKEEAMEILTARQKKAEELKRLTDLASQMAEMQLAELRAEIKHFVSERKYDEELGKAARFSCDIEQLKAQIMLCGEITHPKNNYSSRTPCSSLLPLLNAHAATSGKQSNFSRKSSTHNKPSEGKAANPKMVSSLPSTADPSHQTMPANKQNGSSNQRRRFNPQYHNNRLNGPAKSQGSGNEAEPLGKGNSRHEHRRQPHNGFRPKNKGGAKNQEASLGMKTPEAPAHSEKPRRRQHAADTSEARPFRGSVGRVSQCNLCPTRIEVSTDAAVLSVPAVTLVA | soluble
